The values that follow come from article doi:10.1101/2021.11.20.466133.

The target in experiment [1] is MsDisA_(1-316) (domains 1 and 2) (Mycobacterium smegmatis mc2155). Description: SEC-MALS. (In general: SEC sorts molecules by how far they enter the pores of the column.)
For experiment [2], the target named is Mycobacterium smegmatis DNA integrity scanning protein (MsDisA), c-di-AMP synthase (Mycobacterium smegmatis mc2155). The experiment is described as follows: cryo-EM structure.
The target is the same in experiment [3]. Description: SEC-MALS.
Experiment [4] has the same target. The experiment is described as follows: negative-stain TEM.
In experiment [5] the target is MsDisA_(1-158) (only N-terminal domain-1) (Mycobacterium smegmatis mc2155). Description: SEC-MALS.
In experiment [6] the target is MsDisA_(132-372) (domains 2 and 3) (Mycobacterium smegmatis mc2155). The experiment is described as follows: SEC-MALS.

The stoichiometry N is a count of units in the complex or per binding partner. “MsDisA_(1-316) (domains 1 and 2) (domain or fragment)” showed a stoichiometry N in experiment [1] of 8.

As for “Mycobacterium smegmatis DNA integrity scanning protein (MsDisA), c-di-AMP synthase (enzyme)”, the stoichiometry N in experiment [2], in experiment [3] and in experiment [4] was 8 each time. The substance “MsDisA_(1-158) (only N-terminal domain-1) (domain or fragment)” yielded a stoichiometry N in experiment [5] of 8. On to “MsDisA_(132-372) (domains 2 and 3) (domain or fragment)”, for which the stoichiometry N in experiment [6] was determined as 2.
